The text below walks through data of PMC5434536, “ING3 promotes prostate cancer growth by activating the androgen receptor” (BMC Medicine, 2017).

The test addresses T1, HA-tagged TIP60 (pCIN4-FLAG-HA-TIP60) (UniProt Q92993 1-513).
T1 construct: TIP60 from the plasmid pCIN4-FLAG-HA-TIP60 (gift from Dr. Wei Gu)
The experiment in a line: co-IP; cells co-transfected with AR, TIP60 and increasing amounts of ING3 plasmid + 10 nM MB for 24 h; AR or TIP60 immunoprecipitated with anti-AR or HA-affinity beads. To be noted: partners not purified.

T1 sequence (Q92993 whole entry): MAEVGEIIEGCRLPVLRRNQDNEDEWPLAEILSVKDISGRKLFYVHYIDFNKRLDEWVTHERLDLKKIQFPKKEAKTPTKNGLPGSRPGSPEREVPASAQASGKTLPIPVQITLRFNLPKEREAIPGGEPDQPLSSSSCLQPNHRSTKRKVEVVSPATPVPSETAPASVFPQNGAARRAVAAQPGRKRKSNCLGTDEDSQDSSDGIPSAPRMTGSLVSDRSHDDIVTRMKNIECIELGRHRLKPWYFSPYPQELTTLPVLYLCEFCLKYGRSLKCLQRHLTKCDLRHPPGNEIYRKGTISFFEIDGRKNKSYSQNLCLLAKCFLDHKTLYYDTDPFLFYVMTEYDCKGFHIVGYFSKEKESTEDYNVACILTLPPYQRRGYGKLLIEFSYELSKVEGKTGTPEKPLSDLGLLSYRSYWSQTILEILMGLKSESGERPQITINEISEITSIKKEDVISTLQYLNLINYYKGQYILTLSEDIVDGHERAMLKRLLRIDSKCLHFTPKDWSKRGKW

B1: Myc-tagged androgen receptor (pCMV-3myc-AR) (receptor, UniProt P10275 1-920, looked up)
chain: MEVQLGLGRVYPRPPSKTYRGAFQNLFQSVREVIQNPGPRHPEAASAAPPGASLLLLQQQQQQQQQQQQQQQQQQQQQQQETSPRQQQQQQGEDGSPQAHRRGPTGYLVLDEEQQPSQPQSALECHPERGCVPEPGAAVAASKGLPQQLPAPPDEDDSAAPSTLSLLGPTFPGLSSCSADLKDILSEASTMQLLQQQQQEAVSEGSSSGRAREASGAPTSSKDNYLGGTSTISDNAKELCKAVSVSMGLGVEALEHLSPGEQLRGDCMYAPLLGVPPAVRPTPCAPLAECKGSLLDDSAGKSTEDTAEYSPFKGGYTKGLEGESLGCSGSAAAGSSGTLELPSTLSLYKSGALDEAAAYQSRDYYNFPLALAGPPPPPPPPHPHARIKLENPLDYGSAWAAAAAQCRYGDLASLHGAGAAGPGSGSPSAAASSSWHTLFTAEEGQLYGPCGGGGGGGGGGGGGGGGGGGGGGGEAGAVAPYGYTRPPQGLAGQESDFTAPDVWYPGGMVSRVPYPSPTCVKSEMGPWMDSYSGPYGDMRLETARDHVLPIDYYFPPQKTCLICGDEASGCHYGALTCGSCKVFFKRAAEGKQKYLCASRNDCTIDKFRRKNCPSCRLRKCYEAGMTLGARKLKKLGNLKLQEEGEASSTTSPTEETTQKLTVSHIEGYECQPIFLNVLEAIEPGVVCAGHDNNQPDSFAALLSSLNELGERQLVHVVKWAKALPGFRNLHVDDQMAVIQYSWMGLMVFAMGWRSFTNVNSRMLYFAPDLVFNEYRMHKSRMYSQCVRMRHLSQEFGWLQITPQEFLCMKALLLFSIIPVDGLKNQKFFDELRMNYIKELDRIIACKRKNPTSCSRRFYQLTKLLDSVQPIARELHQFTFDLLIKSHMVSVDFPEMMAEIISVQVPKILSGKVKPIYFHTQ
notes: androgen receptor from the plasmid pCMV-3myc-AR (gift from Dr. Marja Nevalainen); pCMV-3myc-AR is the only full-length AR plasmid named; also called AR-Myc; Myc-tagged AR; source: HEK293T, transfected, in lysate
For B1, the “fold increase of the AR-TIP60 association (ratio AR:HA-TIP60) with co-transfected ING3 against without” value is roughly 8 fold.
